Reference: patent US20140348840A1 (Memorial Sloan Kettering, published 2014)
Each block holds one binder with its values, some of them ahead of it.

Legend:
p300 [1] = target: T1, p300 (UniProt Q09472 2-2414, limits assumed); assay: anti-Flag co-IP from 293T cells, Western blot for p300
T1 construct: The shRNAs used in Kasumi-1 cells are against human p300
Procedure: (§1) After 36 hours the cells were lysed in RIPA buffer with 1 mM DTT and DNAse I 1 μg/mL and a proteinase inhibitor cocktail (Roche), and incubated on ice for 30 minutes. Nuclear extracts were prepared to examine the endogenous protein-protein interactions. Anti-Flag agarose (Sigma), anti-HA agarose (Pierce) or protein A/G agarose (Santa Cruz) was used in the immunoprecipitation assays. For western blot assays, protein samples were separated by electrophoresis on denaturing 3-8% or 4-12% premade polyacrylamide gels (Invitrogen) and blotted to PVDF membranes (Millipore).

p300 [2] = target: T1, p300; assay: in vitro binding assay with purified proteins
p300 [3] = target: T1, p300; assay: anti-HA co-IP, Western blot for p300
Procedure: as §1

T1 sequence (Q09472 2-2414 limits assumed): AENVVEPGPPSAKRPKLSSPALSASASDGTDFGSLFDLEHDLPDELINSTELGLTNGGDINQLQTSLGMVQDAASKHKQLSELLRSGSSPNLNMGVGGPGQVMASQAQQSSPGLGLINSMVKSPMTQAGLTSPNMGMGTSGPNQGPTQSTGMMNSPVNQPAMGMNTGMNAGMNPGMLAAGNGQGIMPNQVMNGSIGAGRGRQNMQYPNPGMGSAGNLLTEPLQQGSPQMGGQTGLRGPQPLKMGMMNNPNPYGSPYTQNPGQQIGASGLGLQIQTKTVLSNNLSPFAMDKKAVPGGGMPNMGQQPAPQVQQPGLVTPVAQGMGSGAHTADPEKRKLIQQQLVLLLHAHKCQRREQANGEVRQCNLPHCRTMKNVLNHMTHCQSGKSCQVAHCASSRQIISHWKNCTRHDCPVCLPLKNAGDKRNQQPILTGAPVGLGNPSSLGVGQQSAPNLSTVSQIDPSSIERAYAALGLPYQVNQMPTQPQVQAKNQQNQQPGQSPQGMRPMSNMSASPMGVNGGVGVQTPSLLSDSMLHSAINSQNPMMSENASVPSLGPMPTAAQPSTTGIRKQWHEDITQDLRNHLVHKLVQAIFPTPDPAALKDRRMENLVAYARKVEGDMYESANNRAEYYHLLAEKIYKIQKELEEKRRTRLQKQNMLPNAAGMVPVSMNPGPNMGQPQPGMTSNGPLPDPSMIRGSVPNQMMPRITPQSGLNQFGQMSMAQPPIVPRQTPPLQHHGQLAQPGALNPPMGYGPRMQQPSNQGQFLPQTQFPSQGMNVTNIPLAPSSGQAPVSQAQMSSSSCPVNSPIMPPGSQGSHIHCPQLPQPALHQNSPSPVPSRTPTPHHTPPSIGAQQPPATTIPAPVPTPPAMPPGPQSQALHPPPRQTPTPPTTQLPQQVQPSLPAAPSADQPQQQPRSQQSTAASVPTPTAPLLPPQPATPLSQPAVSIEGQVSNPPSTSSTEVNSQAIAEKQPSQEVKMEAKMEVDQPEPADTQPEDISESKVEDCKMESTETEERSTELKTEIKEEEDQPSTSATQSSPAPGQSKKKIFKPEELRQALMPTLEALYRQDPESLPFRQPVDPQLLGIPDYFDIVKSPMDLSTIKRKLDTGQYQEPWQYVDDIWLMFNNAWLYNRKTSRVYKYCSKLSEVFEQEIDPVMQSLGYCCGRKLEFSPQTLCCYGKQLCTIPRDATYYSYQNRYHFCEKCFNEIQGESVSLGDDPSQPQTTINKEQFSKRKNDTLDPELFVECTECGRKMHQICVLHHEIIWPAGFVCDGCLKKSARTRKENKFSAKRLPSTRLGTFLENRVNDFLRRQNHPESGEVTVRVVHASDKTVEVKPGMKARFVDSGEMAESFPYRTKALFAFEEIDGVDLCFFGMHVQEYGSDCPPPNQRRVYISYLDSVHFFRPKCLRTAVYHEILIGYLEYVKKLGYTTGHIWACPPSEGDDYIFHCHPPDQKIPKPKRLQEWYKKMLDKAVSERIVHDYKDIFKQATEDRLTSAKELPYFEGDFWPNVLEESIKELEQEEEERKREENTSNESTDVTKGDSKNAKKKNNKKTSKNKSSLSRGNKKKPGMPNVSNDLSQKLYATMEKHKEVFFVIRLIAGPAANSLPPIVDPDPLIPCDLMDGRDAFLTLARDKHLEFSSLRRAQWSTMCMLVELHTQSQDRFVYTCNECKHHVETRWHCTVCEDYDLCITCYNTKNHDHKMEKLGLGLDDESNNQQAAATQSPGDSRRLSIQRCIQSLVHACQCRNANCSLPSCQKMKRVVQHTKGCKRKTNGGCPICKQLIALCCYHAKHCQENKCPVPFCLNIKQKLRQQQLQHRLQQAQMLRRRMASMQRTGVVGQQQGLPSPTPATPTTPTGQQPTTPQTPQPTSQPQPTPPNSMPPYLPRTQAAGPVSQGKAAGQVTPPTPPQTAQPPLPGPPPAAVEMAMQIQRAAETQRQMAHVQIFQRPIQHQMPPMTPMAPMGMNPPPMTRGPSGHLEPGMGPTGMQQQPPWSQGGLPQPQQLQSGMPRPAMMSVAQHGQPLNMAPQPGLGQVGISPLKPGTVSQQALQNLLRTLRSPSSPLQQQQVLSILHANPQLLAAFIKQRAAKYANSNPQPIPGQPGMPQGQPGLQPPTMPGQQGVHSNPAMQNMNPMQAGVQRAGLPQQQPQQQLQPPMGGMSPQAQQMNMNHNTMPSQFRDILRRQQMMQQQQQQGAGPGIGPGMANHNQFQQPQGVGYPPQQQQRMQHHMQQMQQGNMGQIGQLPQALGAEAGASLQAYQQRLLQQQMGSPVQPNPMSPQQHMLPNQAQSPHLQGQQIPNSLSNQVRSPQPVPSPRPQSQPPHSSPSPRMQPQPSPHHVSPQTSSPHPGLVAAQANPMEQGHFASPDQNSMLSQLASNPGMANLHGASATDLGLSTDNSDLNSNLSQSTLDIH

binding result (p300 [1]): no binding
B1: Flag-ETO-ΔNHR1 (other, human, UniProt Q06455 1-604, looked up)
chain: MISVKRNTWRALSLVIGDCRKKGNFEYCQDRTEKHSTMPDSPVDVKTQSRLTPPTMPPPPTTQGAPRTSSFTPTTLTNGTSHSPTALNGAPSPPNGLPHPTPPPPQHYRLDDMAIAHHYRDSYRHPSHRDLRDRNRPMGLHGTRQEEMIDHRLTDREWAEEWKHLDHLLNCIMDMVEKTRRSLTVLRRCQEADREELNYWIRRYSDAEDLKKGGGSSSSHSRQQSPVNPDPVALDAHREFLHRPASGYVPEEIWKKAEEAVNEVKRQAMTELQKAVSEAERKAHDMITTERAKMERTVAEAKRQAAEDALAVINQQEDSSESCWNCGRKASETCSGCNTARYCGSFCQHKDWEKHHHICGQTLQAQQQGDTPAVSSSVTPNSGAGSPMDTPPAATPRSTTPGTPSTIETTPR
notes: not shown: Flag tag

binding result (p300 [1]): binds
B2: Flag-AE-ΔNHR2 (other)
chain: MRIPVDASTSRRFTPPSTALSPGKMSEALPLGAPDAGAALAGKLRSGDRSMVEVLADHPGELVRTDSPNFLCSVLPTHWRCNKTLPIAFKVVALGDVPDGTLVTVMAGNDENYSAELRNATAAMKNQVARFNDLRFVGRSGRGKSFTLTITVFTNPPQVATYHRAIKITVDGPREPRNRTEKHSTMPDSPVDVKTQSRLTPPTMPPPPTTQGAPRTSSFTPTTLTNGTSHSPTALNGAPSPPNGFSNGPSSSSSSSLANQQLPPACGARQLSKLKRFLTTLQQFGNDISPEIGERVRTLVLGLVNSTLTIEEFHSKLQEATNFPLRPFVIPFLKANLPLLQRELLHCARLAKQNPAQYLAQHEQLLLDASTTSPVDSSELLLDVNENGKRRTPDRTKENGFDREPLHSEHPSKRPCTISPGQRYSPNNGLSYQPNGLPHPTPPPPQHYRLDDMAIAHHYRDSYRHPSHRDLRDRNRPMGLEDLKKGGGSSSSHSRQQSPVNPDPVALDAHREFLHRPASGYVPEEIWKKAEEAVNEVKRQAMTELQKAVSEAERKAHDMITTERAKMERTVAEAKRQAAEDALAVINQQEDSSESCWNCGRKASETCSGCNTARYCGSFCQHKDWEKHHHICGQTLQAQQQGDTPAVSSSVTPNSGAGSPMDTPPAATPRSTTPGTPSTIETTPR
notes: AML1-ETO lacking amino acids 481 to 547 (the NHR2 domain); also called AML1-ETO ΔNHR2; not shown: Flag tag at the N-terminus

binding result (p300 [2]): binds
B3: AML1-ETO fusion protein (other)
chain: MRIPVDASTSRRFTPPSTALSPGKMSEALPLGAPDAGAALAGKLRSGDRSMVEVLADHPGELVRTDSPNFLCSVLPTHWRCNKTLPIAFKVVALGDVPDGTLVTVMAGNDENYSAELRNATAAMKNQVARFNDLRFVGRSGRGKSFTLTITVFTNPPQVATYHRAIKITVDGPREPRNRTEKHSTMPDSPVDVKTQSRLTPPTMPPPPTTQGAPRTSSFTPTTLTNGTSHSPTALNGAPSPPNGFSNGPSSSSSSSLANQQLPPACGARQLSKLKRFLTTLQQFGNDISPEIGERVRTLVLGLVNSTLTIEEFHSKLQEATNFPLRPFVIPFLKANLPLLQRELLHCARLAKQNPAQYLAQHEQLLLDASTTSPVDSSELLLDVNENGKRRTPDRTKENGFDREPLHSEHPSKRPCTISPGQRYSPNNGLSYQPNGLPHPTPPPPQHYRLDDMAIAHHYRDSYRHPSHRDLRDRNRPMGLHGTRQEEMIDHRLTDREWAEEWKHLDHLLNCIMDMVEKTRRSLTVLRRCQEADREELNYWIRRYSDAEDLKKGGGSSSSHSRQQSPVNPDPVALDAHREFLHRPASGYVPEEIWKKAEEAVNEVKRQAMTELQKAVSEAERKAHDMITTERAKMERTVAEAKRQAAEDALAVINQQEDSSESCWNCGRKASETCSGCNTARYCGSFCQHKDWEKHHHICGQTLQAQQQGDTPAVSSSVTPNSGAGSPMDTPPAATPRSTTPGTPSTIETTPR
notes: also called A-E; AE

binding result (p300 [1]): binds
B4: Flag-AE (Flag-tagged AML1-ETO) (other)
chain: B3 chain
notes: Expressed in 293T cells with BosNeo-p300; anti-Flag IP; not shown: Flag tag added at the 5' end of the construct (N-terminus)

binding result (p300 [3]): binds
B5: HA-AML1-ETO9a (other)
chain: MRIPVDASTSRRFTPPSTALSPGKMSEALPLGAPDAGAALAGKLRSGDRSMVEVLADHPGELVRTDSPNFLCSVLPTHWRCNKTLPIAFKVVALGDVPDGTLVTVMAGNDENYSAELRNATAAMKNQVARFNDLRFVGRSGRGKSFTLTITVFTNPPQVATYHRAIKITVDGPREPRNRTEKHSTMPDSPVDVKTQSRLTPPTMPPPPTTQGAPRTSSFTPTTLTNGTSHSPTALNGAPSPPNGFSNGPSSSSSSSLANQQLPPACGARQLSKLKRFLTTLQQFGNDISPEIGERVRTLVLGLVNSTLTIEEFHSKLQEATNFPLRPFVIPFLKANLPLLQRELLHCARLAKQNPAQYLAQHEQLLLDASTTSPVDSSELLLDVNENGKRRTPDRTKENGFDREPLHSEHPSKRPCTISPGQRYSPNNGLSYQPNGLPHPTPPPPQHYRLDDMAIAHHYRDSYRHPSHRDLRDRNRPMGLHGTRQEEMIDHRLTDREWAEEWKHLDHLLNCIMDMVEKTRRSLTVLRRCQEADREELNYWIRRYSDAEDLKKGGGSSSSHSRQQSPVNPDPVALD
notes: Alternatively spliced form of A-E with 575 amino acids, lacking NHR3 and NHR4; also called A-E9a; AE9a; not shown: HA tag (anti-HA antibody used for the IP)

binding result (p300 [1]): no binding
B6: Flag-AE-ΔNHR1 (aa245-436) (other)
chain: MRIPVDASTSRRFTPPSTALSPGKMSEALPLGAPDAGAALAGKLRSGDRSMVEVLADHPGELVRTDSPNFLCSVLPTHWRCNKTLPIAFKVVALGDVPDGTLVTVMAGNDENYSAELRNATAAMKNQVARFNDLRFVGRSGRGKSFTLTITVFTNPPQVATYHRAIKITVDGPREPRNRTEKHSTMPDSPVDVKTQSRLTPPTMPPPPTTQGAPRTSSFTPTTLTNGTSHSPTALNGAPSPPNGFSHRDLRDRNRPMGLHGTRQEEMIDHRLTDREWAEEWKHLDHLLNCIMDMVEKTRRSLTVLRRCQEADREELNYWIRRYSDAEDLKKGGGSSSSHSRQQSPVNPDPVALDAHREFLHRPASGYVPEEIWKKAEEAVNEVKRQAMTELQKAVSEAERKAHDMITTERAKMERTVAEAKRQAAEDALAVINQQEDSSESCWNCGRKASETCSGCNTARYCGSFCQHKDWEKHHHICGQTLQAQQQGDTPAVSSSVTPNSGAGSPMDTPPAATPRSTTPGTPSTIETTPR
notes: also called AML1-ETO ΔNHR1; not shown: Flag tag at the N-terminus
